The target of the experiment is T1, FcγRIIIa (human, UniProt P08637 17-208).
T1 construct: extracellular domain; also called 3a; FcγRIIIa extracellular domain
Put plainly: SPR (Biacore).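 Note: antibody variants captured on an SPR sensor chip, with FcγRIIIa passed over as analyte in HBS-EP+ buffer at 25 °C.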 In general terms: Surface plasmon resonance follows binding to a sensor surface in real time, without labels.

T1 sequence (P08637 other isoform, or with tags, fused parts or gaps): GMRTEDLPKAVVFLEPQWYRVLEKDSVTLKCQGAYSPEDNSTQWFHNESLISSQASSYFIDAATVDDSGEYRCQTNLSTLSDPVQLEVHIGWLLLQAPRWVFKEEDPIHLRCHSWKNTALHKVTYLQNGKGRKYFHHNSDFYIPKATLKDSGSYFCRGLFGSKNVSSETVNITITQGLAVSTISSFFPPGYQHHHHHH

B1: GpH7-A5/GpH7-B3 variant K334_05P/GpL16-k0 (antibody, human IgG1, kappa)
heavy 1: not shown
heavy 2: not shown
light: DIVMTQSPLSLPVTPGEPASISCQASESLVHSNRNTYLHWYLQKPGQSPQLLIYKVSNRFSGVPDRFSGSGSGTDFTLKISRVEAEDVGVYYCSQNTHVPPTFGQGTKVEIERTVAAPSVFIFPPSDEQLKSGTASVVCLLNNFYPREAKVQWKVDNALQSGNSQESVTEQDSKDSTYSLSSTLTLSKADYEKHKVYACEVTHQGLSSPVTKSFNRGEC
notes: copies: 1 + 1 + 2
As to B1, the “He/Con 3a” value is 138 % of GpH7-A5/GpH7-B3/GpL16-k0.

B2: GpH7-A5/GpH7-B3 variant L234_13S/GpL16-k0 (antibody, human IgG1, kappa)
heavy 1: not shown
heavy 2: not shown
light: B1 light
notes: copies: 1 + 1 + 2
Take B2: the “He/Con 3a” value was 68.1 % of GpH7-A5/GpH7-B3/GpL16-k0.

B3: GpH7-A5/GpH7-B3 variant L234_09D/GpL16-k0 (antibody, human IgG1, kappa)
heavy 1: not shown
heavy 2: not shown
light: B1 light
notes: copies: 1 + 1 + 2
As to B3, the “He/Con 3a” value was 113 % of GpH7-A5/GpH7-B3/GpL16-k0.

B4: GpH7-A5/GpH7-B3 variant L235_01G/GpL16-k0 (antibody, human IgG1, kappa)
heavy 1: not shown
heavy 2: not shown
light: B1 light
notes: copies: 1 + 1 + 2
For B4, the “He/Con 3a” value was 56.7 % of GpH7-A5/GpH7-B3/GpL16-k0.

B5: GpH7-A5/GpH7-B3 variant K334_19Q/GpL16-k0 (antibody, human IgG1, kappa)
heavy 1: not shown
heavy 2: not shown
light: B1 light
notes: copies: 1 + 1 + 2
For B5, the “He/Con 3a” value was 140 % of GpH7-A5/GpH7-B3/GpL16-k0.

B6: GpH7-A5/GpH7-B3 variant L234_02A/GpL16-k0 (antibody, human IgG1, kappa)
heavy 1: not shown
heavy 2: not shown
light: B1 light
notes: copies: 1 + 1 + 2
Consider B6, for which the “He/Con 3a” value was 69.7 % of GpH7-A5/GpH7-B3/GpL16-k0.

B7: GpH7-A5/GpH7-B3 variant L235_16H/GpL16-k0 (antibody, human IgG1, kappa)
heavy 1: not shown
heavy 2: not shown
light: B1 light
notes: copies: 1 + 1 + 2
As to B7, the “He/Con 3a” value was 57.1 % of GpH7-A5/GpH7-B3/GpL16-k0.

B8: GpH7-A5/GpH7-B3 variant L235_02A/GpL16-k0 (antibody, human IgG1, kappa)
heavy 1: not shown
heavy 2: not shown
light: B1 light
notes: copies: 1 + 1 + 2
For the molecule B8, the “He/Con 3a” value is 72 % of GpH7-A5/GpH7-B3/GpL16-k0.

B9: GpH7-A5/GpH7-B3 variant K334_14T/GpL16-k0 (antibody, human IgG1, kappa)
heavy 1: not shown
heavy 2: not shown
light: B1 light
notes: copies: 1 + 1 + 2
B9: the “He/Con 3a” value is 146 % of GpH7-A5/GpH7-B3/GpL16-k0.

B10: GpH7-A5/GpH7-B3 variant K334_12R/GpL16-k0 (antibody, human IgG1, kappa)
heavy 1: not shown
heavy 2: not shown
light: B1 light
notes: copies: 1 + 1 + 2
On to B10, for which the “He/Con 3a” value was 93.5 % of GpH7-A5/GpH7-B3/GpL16-k0.

B11: GpH7-A5/GpH7-B3 variant L328_18N/GpL16-k0 (antibody, human IgG1, kappa)
heavy 1: not shown
heavy 2: not shown
light: B1 light
notes: copies: 1 + 1 + 2
Consider B11, for which the “He/Con 3a” value is 51.1 % of GpH7-A5/GpH7-B3/GpL16-k0.

B12: GpH7-A5/GpH7-B3 variant K334_13S/GpL16-k0 (antibody, human IgG1, kappa)
heavy 1: not shown
heavy 2: not shown
light: B1 light
notes: copies: 1 + 1 + 2
Consider B12, for which the “He/Con 3a” value is 150 % of GpH7-A5/GpH7-B3/GpL16-k0.

B13: GpH7-A5/GpH7-B3 variant L235_14T/GpL16-k0 (antibody, human IgG1, kappa)
heavy 1: not shown
heavy 2: not shown
light: B1 light
notes: copies: 1 + 1 + 2
In the case of B13, the “He/Con 3a” value was 73.2 % of GpH7-A5/GpH7-B3/GpL16-k0.

B14: GpH7-A5/GpH7-B3 variant L235_05P/GpL16-k0 (antibody, human IgG1, kappa)
heavy 1: not shown
heavy 2: not shown
light: B1 light
notes: copies: 1 + 1 + 2
Regarding B14, the “He/Con 3a” value is 68.6 % of GpH7-A5/GpH7-B3/GpL16-k0.

B15: GpH7-A5/GpH7-B3 variant K334_09D/GpL16-k0 (antibody, human IgG1, kappa)
heavy 1: not shown
heavy 2: not shown
light: B1 light
notes: copies: 1 + 1 + 2
Take B15: the “He/Con 3a” value was 164 % of GpH7-A5/GpH7-B3/GpL16-k0.

B16: GpH7-A5/GpH7-B3 variant L235_06M/GpL16-k0 (antibody, human IgG1, kappa)
heavy 1: not shown
heavy 2: not shown
light: B1 light
notes: copies: 1 + 1 + 2
In the case of B16, the “He/Con 3a” value was 75.6 % of GpH7-A5/GpH7-B3/GpL16-k0.

B17: GpH7-A5/GpH7-B3 variant L328_10E/GpL16-k0 (antibody, human IgG1, kappa)
heavy 1: not shown
heavy 2: not shown
light: B1 light
notes: copies: 1 + 1 + 2
On to B17, for which the “He/Con 3a” value was 54.9 % of GpH7-A5/GpH7-B3/GpL16-k0.

B18: GpH7-A5/GpH7-B3 variant L328_04F/GpL16-k0 (antibody, human IgG1, kappa)
heavy 1: not shown
heavy 2: not shown
light: B1 light
notes: copies: 1 + 1 + 2
As to B18, the “He/Con 3a” value was 81.5 % of GpH7-A5/GpH7-B3/GpL16-k0.

B19: GpH7-A5/GpH7-B3 variant L234_16H/GpL16-k0 (antibody, human IgG1, kappa)
heavy 1: not shown
heavy 2: not shown
light: B1 light
notes: copies: 1 + 1 + 2
Consider B19, for which the “He/Con 3a” value is 76.8 % of GpH7-A5/GpH7-B3/GpL16-k0.

B20: GpH7-A5/GpH7-B3 variant L235_15Y/GpL16-k0 (antibody, human IgG1, kappa)
heavy 1: not shown
heavy 2: not shown
light: B1 light
notes: copies: 1 + 1 + 2
Regarding B20, the “He/Con 3a” value was 77.8 % of GpH7-A5/GpH7-B3/GpL16-k0.

B21: GpH7-A5/GpH7-B3 variant K334_18N/GpL16-k0 (antibody, human IgG1, kappa)
heavy 1: not shown
heavy 2: not shown
light: B1 light
notes: copies: 1 + 1 + 2
Turning to B21, the “He/Con 3a” value is 140 % of GpH7-A5/GpH7-B3/GpL16-k0.

B22: GpH7-A5/GpH7-B3 variant L234_01G/GpL16-k0 (antibody, human IgG1, kappa)
heavy 1: not shown
heavy 2: not shown
light: B1 light
notes: copies: 1 + 1 + 2
Take B22: the “He/Con 3a” value is 55.8 % of GpH7-A5/GpH7-B3/GpL16-k0.

B23: GpH7-A5/GpH7-B3 variant K334_20W/GpL16-k0 (antibody, human IgG1, kappa)
heavy 1: not shown
heavy 2: not shown
light: B1 light
notes: copies: 1 + 1 + 2
In the case of B23, the “He/Con 3a” value was 132 % of GpH7-A5/GpH7-B3/GpL16-k0.

B24: GpH7-A5/GpH7-B3 variant L234_05P/GpL16-k0 (antibody, human IgG1, kappa)
heavy 1: not shown
heavy 2: not shown
light: B1 light
notes: copies: 1 + 1 + 2
Regarding B24, the “He/Con 3a” value was 85.1 % of GpH7-A5/GpH7-B3/GpL16-k0.

B25: GpH7-A5/GpH7-B3 variant L235_10E/GpL16-k0 (antibody, human IgG1, kappa)
heavy 1: not shown
heavy 2: not shown
light: B1 light
notes: copies: 1 + 1 + 2
On to B25, for which the “He/Con 3a” value was 85.6 % of GpH7-A5/GpH7-B3/GpL16-k0.

B26: GpH7-A5/GpH7-B3 variant L234_06M/GpL16-k0 (antibody, human IgG1, kappa)
heavy 1: not shown
heavy 2: not shown
light: B1 light
notes: copies: 1 + 1 + 2
With B26, the “He/Con 3a” value was 82.9 % of GpH7-A5/GpH7-B3/GpL16-k0.

B27: GpH7-A5/GpH7-B3 variant K334_07I/GpL16-k0 (antibody, human IgG1, kappa)
heavy 1: not shown
heavy 2: not shown
light: B1 light
notes: copies: 1 + 1 + 2
For the molecule B27, the “He/Con 3a” value was 156 % of GpH7-A5/GpH7-B3/GpL16-k0.

B28: GpH7-A5/GpH7-B3 variant L234_03V/GpL16-k0 (antibody, human IgG1, kappa)
heavy 1: not shown
heavy 2: not shown
light: B1 light
notes: copies: 1 + 1 + 2
B28: the “He/Con 3a” value is 88.3 % of GpH7-A5/GpH7-B3/GpL16-k0.

The record behind these values is US20260167699A1 (Chugai, published 2026).
